The text below walks through data of US20110287512.

In data set [1] the test system is ZFN7264 linker TGGGGSQKP (synthetic). Put plainly: cell_activity. The following applies: yeast, partner ZFN7263; host on 0-bp gap = 1.00.
For data set [2], the system named is ZFN7264 linker 1e (synthetic). Description: cell_activity. As to conditions: yeast, partner ZFN7263; host on 0-bp gap = 1.00.
Data set [3] has as its system ZFN7264 linker TSRPRPKP (synthetic). Description: cell_activity. The following applies: yeast, partner ZFN7263; host on 0-bp gap = 1.00.
For data set [4], the system named is ZFN7264 linker TGLPKPKP (synthetic). Description: cell_activity. The following applies: yeast, partner ZFN7263; host on 0-bp gap = 1.00.
The subject of data set [5] is ZFN7264 (host, center linker TGSQKP) (synthetic). Description: cell_activity. As to conditions: yeast, partner ZFN7263; host on 0-bp gap = 1.00; host data same as Table 9.
Data set [6] has as its system ZFN7264 linker 1e center linker F2-F3 TGSQKP replaced by TVPRPTPPKP (artificial). Put plainly: cell_activity. The following applies: normalized yeast MEL-1 score.
The test system of data set [7] is ZFN7264 linker TGGGGSQKP (artificial). Description: cell_activity. As to conditions: yeast, paired with 7263 ZFN.
Data set [8] relates to ZFN7264 linker TGLPKPKP (artificial). Description: cell_activity. The following applies: yeast, paired with 7263 ZFN.
Data set [9] deals with ZFN7264 linker TSRPRPKP (artificial). Description: cell_activity. As to conditions: yeast, paired with 7263 ZFN.
For data set [10], the system named is ZFN7264 (host) (artificial). Put plainly: cell_activity. As to conditions: yeast, paired with 7263 ZFN.
Data set [11] relates to ZFN7263 linker TGGGGSQKP (synthetic). Description: cell_activity. The following applies: yeast, partner ZFN7264; host on 0-bp gap = 1.00.
Data set [12] has as its system ZFN7263 (host, center linker TGSQKP) (synthetic). Description: cell_activity. The following applies: yeast, partner ZFN7264; host on 0-bp gap = 1.00.
Data set [13] relates to ZFN7263 linker TYPRPLLAKP (synthetic). Put plainly: cell_activity. The following applies: yeast, partner ZFN7264; host on 0-bp gap = 1.00.
Data set [14] deals with ZFN7263 linker TQRPQIPPKP (synthetic). Description: cell_activity. The following applies: yeast, partner ZFN7264; host on 0-bp gap = 1.00.
The test system of data set [15] is ZFN7263 linker TPRPPIPKP (synthetic). Put plainly: cell_activity. The following applies: yeast, partner ZFN7264; host on 0-bp gap = 1.00.
Data set [16] has as its system ZFN7263 linker TPLCQRPMKQKP (synthetic). Description: cell_activity. As to conditions: yeast, partner ZFN7264; host on 0-bp gap = 1.00.
Data set [17] relates to ZFN7263 linker TPNRCPPTKP (synthetic). Put plainly: cell_activity. The following applies: yeast, partner ZFN7264; host on 0-bp gap = 1.00.
The test system of data set [18] is ZFP8196 linker TCPRPPTRKP (artificial).
In data set [19] the test system is ZFP8196 (host, center linker TGEKP) (artificial).
The test system of data set [20] is ZFP8196 linker TVSPAPCRSKP (artificial).
In data set [21] the test system is ZFP8196 linker 1c (artificial).
For data set [22], the system named is ZFP8196 linker 1d (artificial).
Data set [23] has as its system ZFP8196 linker 1f (artificial).
The subject of data set [24] is ZFP8196 linker TGEGGKP (artificial).
The subject of data set [25] is ZFP8196 linker TGYSIPRPKP (artificial).
Data set [26] relates to ZFP8196 linker TPDAPKPKP (artificial).
Data set [27] has as its system ZFP8196 linker TSPRLPAPKP (artificial).
Data set [28] has as its system ZFP8196 linker TEPRAKPPKP (artificial).
For data set [29], the system named is ZFP8196 linker TPSHTPRPKP (artificial).
Data set [30] concerns ZFP8196 linker LRQKDERP (artificial).
The test system of data set [31] is ZFP8196 linker TGGGGSQKP (artificial).
In data set [32] the test system is ZFP8196 linker TSSPRSNAKP (artificial).
Data set [33] concerns ZFP8196 linker TPDRPISTCKP (artificial).
Data set [34] concerns ZFP8196 linker TPGLHRPKP (artificial).
Data set [35] relates to ZFP7264 linker 1e (artificial).
Data set [36] has as its system ZFP7264 linker TSRPRPKP (artificial).
The test system of data set [37] is ZFP7264 linker LRQKDERP (artificial).
The test system of data set [38] is ZFP7264 linker TKHGTPKHREDKP (artificial).
Data set [39] deals with ZFP7264 linker TLPLPRPKP (artificial).
Data set [40] has as its system ZFP7264 (host, center linker TGSQKP) (artificial).
In data set [41] the test system is ZFP7264 linker TLPPCFRPKP (artificial).
Data set [42] relates to ZFP7264 linker TGLPKPKP (artificial).
The test system of data set [43] is ZFP7264 linker TGGGGSQKP (artificial).
In data set [44] the test system is ZFP7264 linker TGEGGKP (artificial).

As for “AAAGCGCTGCTCCG (double strand) [7264 yeast half-site gap CT]”, the activity (normalized MEL-1) was 0.15 in data set [1]; 0.11 in data set [2]; 0.1 in [3]; 0.09 in data set [4]; 0.08 in [5].
For the sequence “AAAGCGGCTCCG (double strand) [7264 yeast half-site 0-bp gap]”, in data set [6] (with invariant 7263 ZFN partner), the activity amounted to 0.08. The activity (normalized MEL-1) in data set [7] was determined as 0.28; in data set [8], 0.04; in data set [9] it was 0.08; in [10], 1.
Turning to “AAAGCGTAGCTCCG (double strand) [7264 yeast half-site gap TA]”, the activity (normalized MEL-1) in data set [1] was found to be 0.09; in [2], 0.09; in [3], 0.07; in data set [4], 0.08; in [5], 0.02.
“AAAGCGTGCTCCG (double strand) [7264 yeast half-site gap T]” showed an activity in data set [6] of 2.34. Moreover, the activity (normalized MEL-1) worked out at 0.34 in data set [7], 0.79 in data set [8], 3.38 in data set [9] and 0.06 in data set [10].
Consider “ACTCTGATTGGAAG (double strand) [7263 yeast half-site gap AT]”, for which the activity (normalized MEL-1) in data set [11] came to 0.02; in data set [12], 0.02; in data set [13], 0.05; in [14] it was 0.02; in [15], 0.03; in [16], 0.01. For the same sequence, the activity (normalized MEL-1) in [17] was 0.03.
For the sequence “ACTCTGCTTGGAAG (double strand) [7263 yeast half-site gap CT]”, the activity (normalized MEL-1) was found to be 0.04 in data set [11]; 0.08 in data set [12]; 0.05 in data set [13]; 0.03 in data set [14]; 0.04 in data set [15]; 0.03 in data set [16]. In data set [17], this sequence gave an activity (normalized MEL-1) of 0.06.
“TTAGATAAACTGACCAAAAGGCTATC (double strand) [8196 target gap AC]”: the binding signal (normalized ELISA) in data set [18] is 0; in [19] it was 0; in data set [20], 0; in data set [21], 0; in data set [22], 0.01; in data set [23], 0. In addition, the binding signal (normalized ELISA) in data set [24] stood at 0; in [25], 0; in data set [26], 0; in data set [27], 0; in data set [28] it was 0.01; in [29], 0.01. For the same sequence, the binding signal (normalized ELISA) in data set [30] was 0; in [31], 0; in [32], 0; in data set [33] it was 0.01; in data set [34], 0.
Turning to “TTAGATAAACTGTGCAAAAGGCTATC (double strand) [8196 target gap TG]”, the binding signal (normalized ELISA) in data set [18] turned out to be 0.01; in data set [19], 0; in data set [20], 0.01; in data set [21] it was 0; in [22], 0.01; in [23], 0.01. Moreover, the binding signal (normalized ELISA) in [24] is 0; in [25], 0.01; in [26], 0.01; in data set [27], 0.01; in data set [28], 0.01; in data set [29], 0.01. Further, the binding signal (normalized ELISA) was 0 in data set [30]; 0 in data set [31]; 0.01 in data set [32]; 0.02 in data set [33]; 0.01 in [34].
For the sequence “TTAGTTAAAGCGTAGCTCCGAATATC (double strand) [7264 target gap TA]”, the binding signal (normalized ELISA) was found to be 0.05 in data set [35]; 0.03 in data set [36]; 0.02 in [37]; 0 in data set [38]; 0.03 in [39]; 0 in data set [40]. Further, the binding signal (normalized ELISA) in data set [41] is 0.06; in [42], 0.02; in data set [43] it was 0.03; in [44] it was 0.02.
